This assay addresses recombinant K18 tau K311Q (acetylation-mimic) (human). Put plainly: Thioflavin T fluorescence of heparin-induced aggregation; 10 μM K18 tau, 100 mM sodium acetate pH 7.0, 2 mM DTT, 10 μM heparin, 37 °C; 10 μM ThT, 430 nm excitation and 500 nm emission.

Turning to “recombinant K18 tau K311Q (acetylation-mimic) (domain or fragment)”, the fold increase in ThT-positive fibrils against WT or K311R came to 3 fold.

Source of the values: article PMC7606452.
